Assay results reported in the PETadex activity labels (doi:10.3390/polym4010617).

Tests used:
PLA [1] = test: Proxy for plastic degradation [HPLC-UV]; details: pH 7; 37 °C
pNP-C2 = test: Proxy for plastic degradation [Specific activity]; details: pH 7
pNPB = test: Proxy for plastic degradation [Specific activity]; details: pH 7
PLA [2] = test: Proxy for plastic degradation [Released monomer concentration (HPLC/LC-MS) (LA )]; details: pH 7
[3] = Proxy for plastic degradation [Released monomer concentration (HPLC/LC-MS) (BA)] (mmol/mol of enzyme); details: pH 7
[4] = Proxy for plastic degradation [Released monomer concentration (HPLC/LC-MS) (TA)] (mmol/mol of enzyme); details: pH 7
PET [5] = test: as above; details: pH 7
[6] = Proxy for plastic degradation [Released monomer concentration (HPLC/LC-MS) (HEB)] (mmol/mol of enzyme); details: pH 7
[7] = Proxy for plastic degradation [Released monomer concentration (HPLC/LC-MS) (MHET)] (mmol/mol of enzyme); details: pH 7
PET [8] = test: as above; details: pH 7

B1: unnamed (protein)
chain: MANPYERGPNPTNSSIEALRGPFRVDEERVSRLQARGFGGGTIYYPTDNNTFGAVAISPGYTGTQSSISWLGERLASHGFVVMTIDTNTTLDQPDSRASQLDAALDYMVEDSSYSVRNRIDSSRLAAMGHSMGGGGTLRLAERRPDLQAAIPLTPWHTDKTWGSVRVPTLIIGAENDTIASVRSHSEPFYNSLPGSLDKAYLELDGASHFAPNLSNTTIAKYSISWLKRFVDDDTRYTQFLCPGPSTGWGSDVEEYRSTCPF
PLA [1]
  Proxy for plastic degradation: 14.5 µM
pNP-C2
  Proxy for plastic degradation: 550 U/mg
pNPB
  Proxy for plastic degradation: 500 U/mg
PLA [2]
  Proxy for plastic degradation: 14.5 µM
[3]
  Proxy for plastic degradation: 58
[4]
  Proxy for plastic degradation: 18
PET [5]
  Proxy for plastic degradation: 21.5
[6]
  Proxy for plastic degradation: 53
[7]
  Proxy for plastic degradation: 35
PET [8]
  Proxy for plastic degradation: 19.8
